Experimental data published in US20250282871A1, “PHARMACEUTICAL COMBINATION AND USE THEREOF” (TIANJIN LIPOGEN TECHNOLOGY CO., LTD, priority 2021, published 2025).

B1: Tislelizumab: marketed PD-1 monoclonal antibody (antibody, chains of the INN, looked up)
heavy: QVQLQESGPGLVKPSETLSLTCTVSGFSLTSYGVHWIRQPPGKGLEWIGVIYADGSTNYNPSLKSRVTISKDTSKNQVSLKLSSVTAADTAVYYCARAYGNYWYIDVWGQGTTVTVSSASTKGPSVFPLAPCSRSTSESTAALGCLVKDYFPEPVTVSWNSGALTSGVHTFPAVLQSSGLYSLSSVVTVPSSSLGTKTYTCNVDHKPSNTKVDKRVESKYGPPCPPCPAPPVAGGPSVFLFPPKPKDTLMISRTPEVTCVVVAVSQEDPEVQFNWYVDGVEVHNAKTKPREEQFNSTYRVVSVLTVVHQDWLNGKEYKCKVSNKGLPSSIEKTISKAKGQPREPQVYTLPPSQEEMTKNQVSLTCLVKGFYPSDIAVEWESNGQPENNYKTTPPVLDSDGSFFLYSKLTVDKSRWQEGNVFSCSVMHEALHNHYTQKSLSLSLG
light: DIVMTQSPDSLAVSLGERATINCKSSESVSNDVAWYQQKPGQPPKLLINYAFHRFTGVPDRFSGSGYGTDFTLTISSLQAEDVAVYYCHQAYSSPYTFGQGTKLEIKRTVAAPSVFIFPPSDEQLKSGTASVVCLLNNFYPREAKVQWKVDNALQSGNSQESVTEQDSKDSTYSLSSTLTLSKADYEKHKVYACEVTHQGLSSPVTKSFNRGEC
B2: Camrelizumab: marketed PD-1 monoclonal antibody (antibody, chains of the INN, looked up, V domains shown)
VH: EVQLVESGGGLVQPGGSLRLSCAASGFTFSSYMMSWVRQAPGKGLEWVATISGGGANTYYPDSVKGRFTISRDNAKNSLYLQMNSLRAEDTAVYYCARQLYYFDYWGQGTTVTVSS
VL: DIQMTQSPSSLSASVGDRVTITCLASQTIGTWLTWYQQKPGKAPKLLIYTATSLADGVPSRFSGSGSGTDFTLTISSLQPEDFATYYCQQVYSIPWTFGGGTKVEIK

Tested on: colorectal carcinoma MC38
Experiment: Example 7.2.1: MC38 subcutaneous xenograft, marketed PD-1 inhibitors and 2′,3′-cGAMP
Assay type: in vivo, mouse
Conditions: intratumor injection; PD-1 antibody 10 mg/kg, 2′,3′-cGAMP 1 mg/kg; every other day, 3 times
Experimental: Tumor cells were cultured and passaged, cells were collected at the logarithmic phase, and formulated into a concentration of (1.0×10^7) per milliliter of cell suspension with 0.1 ml (with a cell number of 1.0×10^6) being injected into the right flank of the mice, the tumor grew to a diameter of about 5 mm within about 10 days, and the model was successfully established, they were randomly divided into 8 groups with 8 mice per group.
Trend of changes in body weight and tumor volume of mice, survival rate of mice, and inhibitory rate of anatomical tumor weight.
Drug interaction coefficient: CDI(CI)=AB/A*B. AB is the ratio of the combination group of two drugs to the control group, as calculated based on the anatomical tumor weight. A or B is the ratio of single drug group to control group.
After successfully establishing a subcutaneous xenograft tumor model of colorectal carcinoma MC38 in mice, they were randomly grouped with 6-8 mice per group and administered once every two days, a total of 3 times.

Row | Molecule | IRTW % (tumor weight inhibitory rate) | Tumor Weight
1 | B1 | 61.4% | 0.59 g
2 | B2 | 19.6% | 1.23 g
